Results published in patent US20030166587.
Where a chain is given by its changes, count along the chain named.

T1: IKK-phosphorylated IκBα in the IκBα/NF-κB complex
T1 chain: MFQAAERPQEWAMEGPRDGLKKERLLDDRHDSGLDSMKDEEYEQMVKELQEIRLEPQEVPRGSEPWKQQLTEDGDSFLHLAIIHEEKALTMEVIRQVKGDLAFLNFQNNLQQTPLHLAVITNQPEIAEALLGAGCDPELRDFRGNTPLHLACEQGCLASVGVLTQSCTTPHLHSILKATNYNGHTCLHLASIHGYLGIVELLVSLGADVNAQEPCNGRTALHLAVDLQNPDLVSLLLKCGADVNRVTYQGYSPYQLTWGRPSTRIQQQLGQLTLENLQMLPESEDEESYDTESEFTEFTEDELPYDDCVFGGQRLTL

B1: human β-TrCP, FLAG-tagged (protein)
chain: MDPAEAVLQEKALKFMNSSEREDCNNGEPPRKIIPEKNSLRQTYNSCARLCLNQETVCLASTAMKTENCVAKTKLANGTSSMIVPKQRKLSASYEKEKELCVKYFEQWSESDQVEFVEHLISQMCHYQHGHINSYLKPMLQRDFITALPARGLDHIAENILSYLDAKSLCAAELVCKEWYRVTSDGMLWKKLIERMVRTDSLWRGLAERRGWGQYLFKNKPPDGNAPPNSFYRALYPKIIQDIETIESNWRCGRHSLQRIHCRSETSKGVYCLQYDDQKIVSGLRDNTIKIWDKNTLECKRILTGHTGSVLCLQYDERVIITGSSDSTVRVWDVNTGEMLNTLIHHCEAVLHLRFNNGMMVTCSKDRSIAVWDMASPTDITLRRVLVGHRAAVNVVDFDDKYIVSASGDRTIKVWNTSTCEFVRTLNGHKRGIACLQYRDRLVVSGSSDNTIRLWDIECGACLRVLEGHEELVRCIRFDNKRIVSGAYDGKIKVWDLVAALDPRAPAGTLCLRTLVEHSGRVFRLQFDEFQIVSSSHDDTILIWDFLNDPAAQAEPPRSPSRTYTYISR
B2: mouse β-TrCP, FLAG-tagged (protein)
chain: B1 chain with L52I, A60T, T73A, G224E, N295S, T336A, V498M, Q553H
B3: human β-TrCP with a deletion of the F box region residues 122-168, FLAG-tagged (protein)
chain: MDPAEAVLQEKALKFMNSSEREDCNNGEPPRKIIPEKNSLRQTYNSCARLCLNQETVCLASTAMKTENCVAKTKLANGTSSMIVPKQRKLSASYEKEKELCVKYFEQWSESDQVEFVEHLISQMCHYQHGHINSYLKPMLQRDFITERMVRTDSLWRGLAERRGWGQYLFKNKPPDGNAPPNSFYRALYPKIIQDIETIESNWRCGRHSLQRIHCRSETSKGVYCLQYDDQKIVSGLRDNTIKIWDKNTLECKRILTGHTGSVLCLQYDERVIITGSSDSTVRVWDVNTGEMLNTLIHHCEAVLHLRFNNGMMVTCSKDRSIAVWDMASPTDITLRRVLVGHRAAVNVVDFDDKYIVSASGDRTIKVWNTSTCEFVRTLNGHKRGIACLQYRDRLVVSGSSDNTIRLWDIECGACLRVLEGHEELVRCIRFDNKRIVSGAYDGKIKVWDLVAALDPRAPAGTLCLRTLVEHSGRVFRLQFDEFQIVSSSHDDTILIWDFLNDPAAQAEPPRSPSRTYTYISR

Molecular target: T1, IKK-phosphorylated IκBα in the …

Protein	in vitro ubiquitination of pIκBα in the presence of E1 and E2 (UBC5C)
B1	the wild type β-TrCP proteins facilitated the ubiquitination of pIκBα, but not of the non-phosphorylated IκBα
B2	the wild type β-TrCP proteins facilitated the ubiquitination of pIκBα, but not of the non-phosphorylated IκBα
B3	failed to promote ubiquitination (lanes 7 and 8), in spite of its binding capacity
